This is an account of results in patent US20240226321A1 (ANJARIUM BIOSCIENCES, published 2024).

The experiment concerns the target T1, FcRn of the Lumit FcRn Binding Immunoassay (Promega) (UniProt P55899 24-297; P61769 21-119, limits assumed).
T1 construct: Bought kit reagent ('split FcRn/Tracer'); also called split FcRn
The experiment is described as follows: Lumit FcRn Binding Immunoassay (Promega), serial dilution of EVs competing with the kit's Tracer for FcRn, luminescence as fraction of max signal. The protocol: A Lumit™ FcRn Binding Immunoassay (Promega) assay was performed with purified EVs described in Example 1 and native Hek293 EVs. […] Detection reagent was added and luminescence was detected on a plate reader.

T1 sequence (P55899 24-297 limits assumed, form in doubt, chain 1 of 2): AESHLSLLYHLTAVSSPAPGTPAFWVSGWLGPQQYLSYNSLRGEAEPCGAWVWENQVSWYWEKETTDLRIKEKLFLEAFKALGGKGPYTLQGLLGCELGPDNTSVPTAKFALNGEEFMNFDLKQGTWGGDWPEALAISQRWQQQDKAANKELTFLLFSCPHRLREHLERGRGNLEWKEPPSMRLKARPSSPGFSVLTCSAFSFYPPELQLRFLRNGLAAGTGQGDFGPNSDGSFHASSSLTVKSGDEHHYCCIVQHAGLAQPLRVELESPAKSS
T1 sequence (P61769 21-119 limits assumed, form in doubt, chain 2 of 2): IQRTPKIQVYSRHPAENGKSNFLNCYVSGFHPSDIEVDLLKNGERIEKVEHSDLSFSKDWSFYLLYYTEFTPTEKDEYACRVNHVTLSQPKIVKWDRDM

B1: targeting monobody-linker1-modified monomeric Fc-linker2-EphB2 scaffold-linker3-turboluc fusion protein, displayed on purified EVs (Fc fusion)
chain: VSDVPRDLEVVAATPTSLLISWYYPFCAFYYRITYGETGGNSPVQEFTVPRSPDTATISGLKPGVDYTITVYAVTCLGSYSRPISINYRTGGGGSGGGGSGGAPEAAGGPSVFLFPPKPKDTLMISRTPEVTCVVVDVSHEDPEVKFNWYVDGVEVHNAKTKPREEQYNSTYRVVSVLTVLHQDWLNGKEYKCKVSNKALGAPIEKTISKAKGQPREPQVYTKPPSRDELTKNQVSLSCLVKGFYPSDIAVEWESNGQPENNYKTTVPVLDSDGSFRLASYLTVDKSRWQQGNVFSCSVMHEALHNHYTQKSLSLSPGGGSGGGSGGGSGGGSRKCPRIIQNGAIFQETLSGAESTSLVAARGSCIANAEEVDVPIKLYCNGDGEWLVPIGRCMCKAGFEAVENGTVCRGCPSGTFKANQGDEACTHCPINSRTTSEGATNCVCRNGYYRADLDPLDMPCTTIPSAPQAVISSVNETSLMLEWTPPRDSGGREDAVYNIICKSCGSGRGACTRCGDNVQYAPRQLGLTEPRIYASDLLAHTQYTFEIQAVNGVTDQSPFSPQFASVNITTNQAAPSAVSIMHQVSRTVDSITLSWSQPDQPNGVILDYELQYYEKELSEYNATAIKSPTNTVTVQGLKAGAIYVFQVRARTVAGYGRYSGKMYFQTMTEAEYQTEIQEKLPLIIGSSAAGLVFLIAVVVISIVCNRRGFERADSEYTDKLQHYTSGHMTPGMKIYIDPFTYEDPNEAVREFAKEIDISCVKIEQVIGAGEFGEVCSGHLKLPGKREIFVAIKTLKSGYTEKQRRDFLSEASIMGQFDHPNVIHLEGVVTKSTPVMIITEFMENGSLDSFLRQNDGQFTVIQLVGMLRGIAAGMKYLADMNYVHRDLAARNILVNSNLVCKVSDFGLSRFLEDDTSDPTYTSALGGKIPIRWTAPEAIQYRKFTSASDVWSYGIVMWEVMSFGERPYWDMTNQDVINAIEQDYRLPPPMDCPSALHQLMLDCWQKDRNHRPKFGQIVNTLDKMIRNPNSLKAMAPLSSGINLPLGGGEAEAERGKLPGKKLPLEVLIELEANARKAGCTRGCLICLSKIKCTAKMKKYIPGRCADYGGDKKTGQAGIVGAIVDIPEISGFKEMEPMEQFIAQVDRCADCTTGCLKGLANVKCSDLLKKWLPGRCATFADKIQSEVDNIKGLAGD
notes: also called EVs expressing the modified Fc domain
In the case of B1, the “IC50 (read off the curve)” value was about 0.2 nM.
